From patent US20230212587A1, “Mutant Hydroxyphenylpyruvate Dioxygenase Polypeptide, Encoding Gene Thereof and Use Therefor” (Beijing Dabeinong Biotechnology Co., Ltd., priority 2019, published 2023) come the findings set out here.

This test concerns Arabidopsis thaliana T1 plants. Kind of test: Topramezone tolerance of transgenic Arabidopsis thaliana T1 plants (pesticide damage grade by bleached leaf area, score, resistance evaluation). The test is classed as in vivo. Conditions: for Classification and statistics of pesticide damage grade Grade 0 / Classification and statistics of pesticide damage grade Grade 1 / Classification and statistics of pesticide damage grade Grade 2 / Classification and statistics of pesticide damage grade Grade 3 / Scores / Resistance evaluation: HPPDs from different species, 7 DAT; for Classification and statistics of pesticide damage grade Grade 0 / Classification and statistics of pesticide damage grade Grade 1 / Classification and statistics of pesticide damage grade Grade 2 / Classification and statistics of pesticide damage grade Grade 3: number of plants (of 16) in this grade; for Scores / score: score for pesticide damage 0-100; for Grade 0 / Grade 1 / Grade 2 / Grade 3 / score / Resistance Grade: non-372 position mutants; for Grade 0 / Grade 1 / Grade 2 / Grade 3: number of plants (of 20) in this grade. In short, it runs like this: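 Herbicide tolerance was judged per plant on a bleaching scale (grade 0 no bleaching to grade 3 fully bleached) 7 DAT. Topramezone doses were 0, 25, 50 and 100 g ai/ha on 18-day-old T1 and wild-type plants.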

Positions count from the first letter of the chain named. Names may count otherwise.

B1: NtHPPDm-F372A-02: Nicotiana tabacum HPPD mutant F372A, SEQ ID NO: 114 (protein)
chain: MGKLETVTTTSAAAADDSSELTTNFKLVGFKNFIRTNPRSDFFSVKSFHHIEFWCGDATNTARRFSWSLGMPIAAKSDLSTGNSVHASYLLRPVSGSLQFLFTAPYSPSISTPSSAAIPSFSTSTHRSFTTTHGLGVRAVALEVENAYTAFSASVSRGAKPMFEPVTIDEQVAMAEVHLYGDVVLRFVSYLKDADNLVFLPGFEAMDETASYKELDYGIRRLDHAVGNVPELGPVVDYIKRFTGFHEFAEFTAEDVGTAESGLNSMVLANNDETVLLPLNEPVYGTKRKSQIQTYLEHNEGAGVQHLALVTEDIFKTLTEMRKRSGVGGFEFMPSPPPTYYKNLKNRAGDVLSDEQILACEELGILVDRDDQGTLLQIATKPVGDRPTIFIEIIQRIGCMLKDGKGQVYQKGGCGGFGKGNFSELFRSIEEYEKTLEAKQANQVAAA
modifications: NtHPPDm-F372A Amino Acid Sequence
As to B1, under “topramezone 25 g ai/ha (1x)”, the “Classification and statistics of pesticide damage grade Grade 0” value was found to be 0; the “Classification and statistics of pesticide damage grade Grade 1” value is 6; the “Classification and statistics of pesticide damage grade Grade 2” value amounted to 10; the “Classification and statistics of pesticide damage grade Grade 3” value is given as 0. For the same molecule, for the setting “topramezone 25 g ai/ha (1x)”, the Scores is 54 and the Resistance evaluation entry was “poorly resistant (poorly resistant plants (scores 34-67))”. Moreover, where the note is “topramezone 100 g ai/ha (4x)”, the “Classification and statistics of pesticide damage grade Grade 0” value is recorded as 0; the “Classification and statistics of pesticide damage grade Grade 1” value worked out at 0; the “Classification and statistics of pesticide damage grade Grade 2” value was 0; the “Classification and statistics of pesticide damage grade Grade 3” value is given as 16. Also, for the setting “topramezone 100 g ai/ha (4x)”, the Scores is 100 and the Resistance evaluation entry is “non-resistant (non-resistant plants (scores 68-100))”.

B2: AsHPPDm-F415A: Avena sativa HPPD mutant F415A, SEQ ID NO: 424 (protein)
chain: MPPTPATATGAAAAAVTPEHAARSFPRVVRVNPRSDRFPVLSFHHVELWCADAASAAGRFSFALGAPLAARSDLSTGNSAHASLLLRSGALAFLFTAPYAPPPQEAATAAATASIPSFSADAARTFAAAHGLAVRSVGVRVADAAEAFRVSVAGGARPAFAPADLGHGFGLAEVELYGDVVLRFVSYPDETDLPFLPGFERVSSPGAVDYGLTRFDHVVGNVPEMAPVIDYMKGFLGFHEFAEFTAEDVGTTESGLNSVVLANNSEAVLLPLNEPVHGTKRRSQIQTYLEYHGGPGVQHIALASNDVLRTLREMRARTPMGGFEFMAPPQAKYYEGVRRIAGDVLSEEQIKECQELGVLVDRDDQGVLLQIFTKPVGDRPTFFLEMIQRIGCMEKDEVGQEYQKGGCGGFGKGNASELFKSIEDYEKSLEVKQSVVAQKS
modifications: AsHPPDm-F415A Amino Acid Sequence
B2: the “tolerance to topramezone, in words” value (Arabidopsis thaliana T1 plants sprayed with topramezone) is reported as “no significant difference”. Also, under “topramezone 25 g ai/ha (1x)”, the “Grade 0” value is on record as 0, the “Grade 1” value was found to be 6, the “Grade 2” value is 12 and the “Grade 3” value is reported as 2. For the same molecule, where the note is “topramezone 25 g ai/ha (1x)”, the score is on record as 60 and the “Resistance Grade” value is “poorly resistant (poorly resistant plants (scores 34-67))”. Where the note is “topramezone 100 g ai/ha (4x)”, the “Grade 0” value was found to be 0, the “Grade 1” value is recorded as 0, the “Grade 2” value is 0 and the “Grade 3” value is on record as 20. Moreover, under “topramezone 100 g ai/ha (4x)”, the score came out at 100 and the “Resistance Grade” value is listed as “non-resistant (non-resistant plants (scores 68-100))”.

B3: StHPPD-02: native Solanum tuberosum HPPD, SEQ ID NO: 123 (protein, listed as Solanum tuberosum)
chain: MGKQAATATATATATADDQQLPADIEDKYKLVGFNNFVRTNPRSDLFNVKRFHHIEFWCGDATNTARRFSWGLGLPIAAKSDLSTGNSVHASYLLRSSSSQLQFLFTAPYSPAISTPSSSSIPTFSVSSHRSFTETHGLGVRAIALEVENSRLAFSTCVSHGAKPVSEPVILNDEVVISEVHLYGDVVLRFVSFLKDSNRFVFLPGFELVEGAQLDYGIRRLDHAVGNVPQLGPVVEYIKSFTGFHEFAEFTAEDVGTAESGLNSVVLANNDETVLFPLNEPVYGTKRKSQIQTYLEHNEGAGVQHLALVTEDIFRTLREMRKRSGIGGFEFMPSPPPTYYKNLKSRAGDILSDEQIKECEELGILVDRDDQGTLLQIFTKPVGDRPTIFLEIIQRIGCMLQNAEGELYQKGGCGGFGKGNFSELFKSIEEYEKTLEAKQNTQVAIA
modifications: StHPPD Amino Acid Sequence
On to B3, for which, for the setting “topramezone 25 g ai/ha (1x)”, the “Classification and statistics of pesticide damage grade Grade 0” value stood at 0; the “Classification and statistics of pesticide damage grade Grade 1” value is 0; the “Classification and statistics of pesticide damage grade Grade 2” value came out at 0; the “Classification and statistics of pesticide damage grade Grade 3” value came out at 16. Also, for the setting “topramezone 25 g ai/ha (1x)”, the Scores amounted to 100 and the Resistance evaluation result is reported as “non-resistant (non-resistant plants (scores 68-100))”. For the same molecule, under “topramezone 100 g ai/ha (4x)”, the “Classification and statistics of pesticide damage grade Grade 0” value was 0; the “Classification and statistics of pesticide damage grade Grade 1” value is 0; the “Classification and statistics of pesticide damage grade Grade 2” value amounted to 0; the “Classification and statistics of pesticide damage grade Grade 3” value was 16. Besides, where the note is “topramezone 100 g ai/ha (4x)”, the Scores amounted to 100 and the Resistance evaluation entry is recorded as “non-resistant (non-resistant plants (scores 68-100))”.

B4: StHPPDm-F372A-02: Solanum tuberosum HPPD mutant F372A, SEQ ID NO: 126 (protein)
chain: B3 chain with F379A
modifications: StHPPDm-F372A Amino Acid Sequence
On to B4, for which, where the note is “topramezone 25 g ai/ha (1x)”, the “Classification and statistics of pesticide damage grade Grade 0” value worked out at 4; the “Classification and statistics of pesticide damage grade Grade 1” value is on record as 12; the “Classification and statistics of pesticide damage grade Grade 2” value was 0; the “Classification and statistics of pesticide damage grade Grade 3” value came out at 0. Also, under “topramezone 25 g ai/ha (1x)”, the Scores was found to be 25 and the Resistance evaluation entry is listed as “moderately resistant (moderately resistant plants (scores 16-33))”. Also, under “topramezone 100 g ai/ha (4x)”, the “Classification and statistics of pesticide damage grade Grade 0” value amounted to 0; the “Classification and statistics of pesticide damage grade Grade 1” value was 1; the “Classification and statistics of pesticide damage grade Grade 2” value worked out at 4; the “Classification and statistics of pesticide damage grade Grade 3” value is given as 11. Under “topramezone 100 g ai/ha (4x)”, the Scores turned out to be 88 and the Resistance evaluation entry is given as “non-resistant (non-resistant plants (scores 68-100))”.

B5: CsHPPD-02: native Cucumis sativus HPPD, SEQ ID NO: 117 (protein, listed as Cucumis sativus)
chain: MGKEADFPRAPSEATDGGATASQSEFELQGFDNFIRTNPKSDRFKVKRFHHIEFWCTDATNVARRFSWGLGMQIVAKSDLSTGNMTHASYLLRSGHLCFLFTAPYSPSIAAAQNLTPASTASIPSFDHSVCRSFSGTHGFGARAIALEVEDAEIAFRTSVAHGAKPSCPPIVLENRAVLSEVHLYGDVVLRYISYKNPVSGDNGENKPDEWFLPKFEAMEETASFPLDFGIRRLDHAVGNVPELGPAVSYLKGFTGFHEFAEFTAEDVGTSESGLNSMVLANNEEMVLLPINEPVFGTKRKSQIQTYLEHNEGAGVQHLALMSEDIFRTLREMRKRSSVGGFEFMPSPPPTYYKNLKSRAGDVLTDEQIKECEELGILVDKDDQGTLLQIFTKPVGDRPTIFIEIIQRLGCMMKDEEGKAFQKGGCGGFGKGNFSELFKSIEEYEKTLEAKRVSE
modifications: CsHPPD Amino Acid Sequence
For B5, for the setting “topramezone 25 g ai/ha (1x)”, the “Classification and statistics of pesticide damage grade Grade 0” value is on record as 0; the “Classification and statistics of pesticide damage grade Grade 1” value is reported as 0; the “Classification and statistics of pesticide damage grade Grade 2” value worked out at 0; the “Classification and statistics of pesticide damage grade Grade 3” value is listed as 16. Where the note is “topramezone 25 g ai/ha (1x)”, the Scores came to 100 and the Resistance evaluation entry is given as “non-resistant (non-resistant plants (scores 68-100))”. Also, where the note is “topramezone 100 g ai/ha (4x)”, the “Classification and statistics of pesticide damage grade Grade 0” value is 0; the “Classification and statistics of pesticide damage grade Grade 1” value stood at 0; the “Classification and statistics of pesticide damage grade Grade 2” value amounted to 0; the “Classification and statistics of pesticide damage grade Grade 3” value stood at 16. Where the note is “topramezone 100 g ai/ha (4x)”, the Scores was found to be 100 and the Resistance evaluation entry is on record as “non-resistant (non-resistant plants (scores 68-100))”.

B6: CsHPPDm-F372A-02: Cucumis sativus HPPD mutant F372A, SEQ ID NO: 120 (protein)
chain: B5 chain with F391A
modifications: CsHPPDm-F372A Amino Acid Sequence
Regarding B6, for the setting “topramezone 25 g ai/ha (1x)”, the “Classification and statistics of pesticide damage grade Grade 0” value came out at 0; the “Classification and statistics of pesticide damage grade Grade 1” value was 0; the “Classification and statistics of pesticide damage grade Grade 2” value turned out to be 16; the “Classification and statistics of pesticide damage grade Grade 3” value worked out at 0. In addition, where the note is “topramezone 25 g ai/ha (1x)”, the Scores was 67 and the Resistance evaluation result is “poorly resistant (poorly resistant plants (scores 34-67))”. Where the note is “topramezone 100 g ai/ha (4x)”, the “Classification and statistics of pesticide damage grade Grade 0” value amounted to 0; the “Classification and statistics of pesticide damage grade Grade 1” value is on record as 0; the “Classification and statistics of pesticide damage grade Grade 2” value is 0; the “Classification and statistics of pesticide damage grade Grade 3” value was 16. For the setting “topramezone 100 g ai/ha (4x)”, the Scores stood at 100 and the Resistance evaluation result is listed as “non-resistant (non-resistant plants (scores 68-100))”.
